Patent US20090117640

Sequence of hGH mutant Q141N, P01241 (P01241 27-217 Q167N): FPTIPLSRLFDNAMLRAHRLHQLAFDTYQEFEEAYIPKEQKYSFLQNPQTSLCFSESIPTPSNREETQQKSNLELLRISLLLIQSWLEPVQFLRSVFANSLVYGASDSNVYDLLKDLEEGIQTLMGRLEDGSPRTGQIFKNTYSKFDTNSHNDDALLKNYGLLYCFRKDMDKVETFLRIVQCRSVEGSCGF
Sequence of hGH mutant Q40N, P01241 (P01241 27-217 Q66N): as the sequence (P01241 27-217 Q167N) above, with Q40N, N141Q counted along it

B1: TGase from Streptoverticillium ladakanum (protein)
chain: DSDERVTPPAEPLDRMPDPYRPSYGRAETIVNNYIRKWQQVYSHRDGRKQQMTEEQREWLSYGCVGVTWVNSGQYPTNRLAFAFFDEDKYKNELKNGRPRSGETRAEFEGRVAKDSFDEAKGFQRARDVASVMNKALENAHDEGAYLDNLKKELANGNDALRNEDARSPFYSALRNTPSFKDRNGGNHDPSKMKAVIYSKHFWSGQDRSGSSDKRKYGDPEAFRPDRGTGLVDMSRDRNIPRSPTSPGESFVNFDYGWFGAQTEADADKTVWTHGNHYHAPNGSLGAMHVYESKFRNWSDGYSDFDRGAYVVTFVPKSWNTAPDKVKQGWP
In the case of B1, the “HPLC peak area of product-Q40” value (hGH mutant Q141N, P01241) is reported as “The first peak (19.2 min, area 127) is product-Q40”, the Q141N (remaining substrate, normalized to 100) (normalized peak area (sum 100)) (hGH mutant Q141N, P01241) is reported as 90 and the product-Q40 (normalized to 100) (normalized peak area (sum 100)) (hGH mutant Q141N, P01241) is reported as 10. For the same protein, the “HPLC peak area of product-Q141” value (hGH mutant Q40N, P01241) was “The first peak (26.5 min, area 1238) is product-Q141”, the Q40N (remaining substrate, normalized to 100) (normalized peak area (sum 100)) (hGH mutant Q40N, P01241) was 23 and the product-Q141 (normalized to 100) (normalized peak area (sum 100)) (hGH mutant Q40N, P01241) was 77.

B2: TGase from S. mobaraense (wild type) (protein)
chain: DSDDRVTPPAEPLDRMPDPYRPSYGRAETVVNNYIRKWQQVYSHRDGRKQQMTEEQREWLSYGCVGVTWVNSGQYPTNRLAFASFDEDRFKNELKNGRPRSGETRAEFEGRVAKESFDEEKGFQRAREVASVMNRALENAHDESAYLDNLKKELANGNDALRNEDARSPFYSALRNTPSFKERNGGNHDPSRMKAVIYSKHFWSGQDRSSSADKRKYGDPDAFRPAPGTGLVDMSRDRNIPRSPTSPGEGFVNFDYGWFGAQTEADADKTVWTHGNHYHAPNGSLGAMHVYESKFRNWSEGYSDFDRGAYVITFIPKSWNTAPDKVKQGWP
With B2 the “HPLC peak area of product-Q40” value (hGH mutant Q141N, P01241) was “The first peak (19.5 min, area 296) is product-Q40”, the Q141N (remaining substrate, normalized to 100) (normalized peak area (sum 100)) (hGH mutant Q141N, P01241) was 81 and the product-Q40 (normalized to 100) (normalized peak area (sum 100)) (hGH mutant Q141N, P01241) was 19. For the same protein, the “HPLC peak area of product-Q141” value (hGH mutant Q40N, P01241) was “The first peak (26.9 min, area 1283) is product-Q141”, the Q40N (remaining substrate, normalized to 100) (normalized peak area (sum 100)) (hGH mutant Q40N, P01241) was 29 and the product-Q141 (normalized to 100) (normalized peak area (sum 100)) (hGH mutant Q40N, P01241) was 71.
